Data reported in patent US20240122985A1, “ANTIBODIES, COMBINATIONS COMPRISING ANTIBODIES, BIOMARKERS, USES & METHODS” (KYMAB LIMITED, priority 2016, published 2024).
Values joined by “and” are separate entries in the source; they are usually repeats but may differ in a detail not shown here. Equal values may be shown once.

Test system: Rhesus Macaque Graft versus Host Disease (GvHD) model
From the text: The effectiveness of antibody 2D10 IgG4PE as a monotherapy prophylactic for the prevention of GvHD was examined in a Rhesus Macaque model of haploidentical hematopoietic stem cell transplantation (HSCT).
All transplants were between half-sibling pairs that are mismatched at one MHC haplotype (“haploidentical-HCTs”). Recipient animals had irradiation based pre-myeloablative pre-transplant conditioning using a linear accelerator. Dose rate: 7cGy/min. Dose 1020 cGy given in 4 fractions. The leukapheresis donor animal underwent GCSF mobilisation and underwent leukapheresis using a Spectra Optia apheresis machine.
2D10 IgG4PE was dosed at 10 mg/kg i.v. according to a planned dosing schedule to take place on Day −2, Day+5, Day+12, Day+19, Day+26, Day+33, Day+40, Day+47 post-transplant.
Samples were taken during the course of the study to monitor donor chimerism (Table 4) and white blood cell counts. The primary end point was based on survival, with a survival to 15 days deemed to be a sign of successful prophylactic therapy (and compared to the documented survival of 6-8 days with no prophylaxis; Miller et al. 2010, supra). Though full pathology and histology with GvHD grading scores, markers of T-cell proliferation and activation (such as Ki-67 and granzyme B) and gene array analysis are planned, they were not available for inclusion at the time of drafting.
Scoring of clinical symptoms was based on observational assessments and clinical chemistry, classified according to the criteria set out in Table 5.
A further rhesus macaque GvHD study was conducted to determine the effect of combined post-HSCT prophylaxis with 2D10 IgG4PE and rapamycin. The study was performed as described in Example 7, with dosing as follows: 2D10 IgG4PE was administered i.v. at 10 mg/kg on Day −2, Day +5, Day+12, Day+19, Day+26, Day+33, Day+40, Day+47 and Day+56 post-transplant. Rapamycin was administered at a loading dose of 0.1 mg/kg i.m. on Day −14, followed by daily i.m. maintenance doses of 0.025 mg/kg until the scheduled termination of the study at Day+100. Rapamycin dosing was adjusted to maintain serum trough levels within the range 5-15 ng/mL.
This was a cohort study in NHP designed to determine the clinical, immunologic and molecular outcomes of OX40L blockade during allogeneic HCT. Two cohorts of transplant recipients were studied: (1) Allogeneic transplants using the OX40L-blocking human IgG4-PE antibody 1D05 (described as ‘KY1005’ in this Example 11) as monotherapy for GVHD prophylaxis (abbreviated as ‘KY1005’; n=4). KY1005 was given at a dose of 10 mg/kg starting on Days −2 and then once weekly until discontinuation on Days 54 (FIG. 8E). […] (2) Allogeneic transplants using KY1005 in combination with Sirolimus (Rapamycin) ([…]) for GVHD prophylaxis (abbreviated as ‘KY1005/Siro’; n=5). KY1005 was given at a dose of 10 mg/kg starting on Days −2 and then once weekly until discontinuation on Days 54 (FIG. 8P). […] These two OX40L-blockade groups were compared to the following cohorts, aspects of which have been described previously (Furlan et al., 2015; Furlan et al., 2016; Miller et al., 2010) (1) Autologous transplants (abbreviated as ‘Auto’, n=6 for clinical and flow cytometric data and n=4 for transcriptomic analysis) (2); Allogeneic transplants with no GVHD prophylaxis (abbreviated as‘No Rx’, n=11 for clinical and flow cytometric data and n=4 for transcriptomic analysis). (3) Allogeneic transplants using Sirolimus monotherapy for GVHD prophylaxis (LC laboratories, abbreviated as ‘Siro’, n=11 for flow cytometric analysis, n=4 for transcriptomic analysis).

[1] = Rhesus HSCT, 2D10 IgG4PE 10 mg/kg i.v. weekly from Day −2, one line per animal, brackets = experimental failure

Molecule: KY1005: antibody used for GVHD immunoprophylaxis in NHP, measured by antigen (OX40L) capture assay; not tied to 02D10 in this part
- MST (Example 11 (FIG. 7C)): 19.5 days
- GVHD-free survival (Example 11, NHP (FIG. 7C)): 19.5 days
- Survival (Table 8, per animal, Seattle): 16 day (2×) and 26 day and 23 day

B1: 2D10 IgG4PE: fully human anti-human OX40L monoclonal antibody, human IgG4-PE; VH Seq ID No:34, VL Seq ID No:48; 2D10-1 to -4 are stable pools (antibody, V domains shown)
VH: EVQLVESGGGLVQPGGSLRLSCAASGFTFSNYAMNWVRQAPGKGLEWVSTISGSGGATRYADSVKGRFTISRDNSRNTVYLQMNSLRVEDTAVFYCTKDRLIMATVRGPYYYGMDVWGQGTTVTVSS
VL: DIQMTQSPSSLSASVGDRVTITCRASQSISSYLNWYQQKPGKAPNLLIYAASSLQSGVPSRFSGSGSETDFTLTISSLQPEDFATYYCQQSHSVSFTFGPGTKVDIK
modifications: human IgG4-PE constant regions; 02D10 - VH Amino Acid Sequence; 02D10 - VL Amino Acid Sequence
- median survival time, MST (Example 9, post-HSCT prophylaxis, Rhesus macaque (FIG. 7)): 19 days
- Survival Duration [1]: 22 days and 16 days (2×) and 26 days
- Survival Duration (days) [1]: (24) days
- survival of animals after allogeneic HCT (Rhesus macaque): prolonged survival
- Gross necropsy, visceral GvHD (animal #4): no overt visceral GvHD
- adverse dosing side effects (rhesus monkey, in vivo, iv, 10 mg/kg): No serious adverse dosing side effects
